Literature values as cited in article PMC7288020.
pKd: −log10 of the molar value.

Target: Aβ1-40 Aβ 1-40 (Homo sapiens) (UniProt P05067)
UniProt P05067, sequence (P05067 1-40): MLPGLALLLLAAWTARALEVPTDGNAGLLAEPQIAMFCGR

pKd: 8.22
Substance: ApoA1 (from UniProt P02647)
